Results reported in US20260167699A1 (Chugai, published 2026).
Residue numbers refer to the chain shown, from its start.

T1: FcγRIIa(H) extracellular domain, His-tagged (human, UniProt P12318 34-217)
T1 construct: extracellular domain; also called 2aH
T1 sequence: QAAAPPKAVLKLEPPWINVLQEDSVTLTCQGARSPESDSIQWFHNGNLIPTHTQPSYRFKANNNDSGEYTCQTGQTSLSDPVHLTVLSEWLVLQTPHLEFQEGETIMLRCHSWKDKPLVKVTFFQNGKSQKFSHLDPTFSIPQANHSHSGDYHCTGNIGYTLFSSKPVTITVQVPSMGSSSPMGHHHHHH

T2: FcγRIIb extracellular domain, His-tagged (human, UniProt P31994 43-217)
T2 construct: extracellular domain; also called 2b
T2 sequence: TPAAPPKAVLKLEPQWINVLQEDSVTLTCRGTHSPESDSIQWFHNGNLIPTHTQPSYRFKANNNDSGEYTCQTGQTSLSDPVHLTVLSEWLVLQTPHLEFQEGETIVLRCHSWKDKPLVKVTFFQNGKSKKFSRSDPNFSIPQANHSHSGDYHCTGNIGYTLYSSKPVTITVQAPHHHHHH

T3: FcγRIIa(R) extracellular domain, His-tagged (human, UniProt P12318 34-217)
T3 construct: extracellular domain; also called 2aR
T3 sequence: T1 sequence with H134R

B1: GpH7-A5/GpH7-B3 variant H268_14T/GpL16-k0 (antibody, human IgG1, kappa)
heavy 1: not shown
heavy 2: not shown
light: DIVMTQSPLSLPVTPGEPASISCQASESLVHSNRNTYLHWYLQKPGQSPQLLIYKVSNRFSGVPDRFSGSGSGTDFTLKISRVEAEDVGVYYCSQNTHVPPTFGQGTKVEIERTVAAPSVFIFPPSDEQLKSGTASVVCLLNNFYPREAKVQWKVDNALQSGNSQESVTEQDSKDSTYSLSSTLTLSKADYEKHKVYACEVTHQGLSSPVTKSFNRGEC
B2: GpH7-A5/GpH7-B3 variant H268_04F/GpL16-k0 (antibody, human IgG1, kappa)
heavy 1: not shown
heavy 2: not shown
light: B1 light
B3: GpH7-A5/GpH7-B3 variant H268_01G/GpL16-k0 (antibody, human IgG1, kappa)
heavy 1: not shown
heavy 2: not shown
light: B1 light
B4: GpH7-A5/GpH7-B3 variant D270_08L/GpL16-k0 (antibody, human IgG1, kappa)
heavy 1: not shown
heavy 2: not shown
light: B1 light
B5: GpH7-A5/GpH7-B3 variant D270_10E/GpL16-k0 (antibody, human IgG1, kappa)
heavy 1: not shown
heavy 2: not shown
light: B1 light
B6: GpH7-A5/GpH7-B3 variant G236_09D/GpL16-k0 (antibody, human IgG1, kappa)
heavy 1: not shown
heavy 2: not shown
light: B1 light
B7: GpH7-A5/GpH7-B3 variant H268_03V/GpL16-k0 (antibody, human IgG1, kappa)
heavy 1: not shown
heavy 2: not shown
light: B1 light
B8: GpH7-A5/GpH7-B3 variant H268_08L/GpL16-k0 (antibody, human IgG1, kappa)
heavy 1: not shown
heavy 2: not shown
light: B1 light
B9: GpH7-A5/GpH7-B3 variant G236_10E/GpL16-k0 (antibody, human IgG1, kappa)
heavy 1: not shown
heavy 2: not shown
light: B1 light
B10: GpH7-A5/GpH7-B3 variant H268_12R/GpL16-k0 (antibody, human IgG1, kappa)
heavy 1: not shown
heavy 2: not shown
light: B1 light
B11: GpH7-A5/GpH7-B3 variant E269_13S/GpL16-k0 (antibody, human IgG1, kappa)
heavy 1: not shown
heavy 2: not shown
light: B1 light
B12: GpH7-A5/GpH7-B3 variant G236_02A/GpL16-k0 (antibody, human IgG1, kappa)
heavy 1: not shown
heavy 2: not shown
light: B1 light
B13: GpH7-A5/GpH7-B3 variant G236_13S/GpL16-k0 (antibody, human IgG1, kappa)
heavy 1: not shown
heavy 2: not shown
light: B1 light
B14: GpH7-A5/GpH7-B3 variant H268_10E/GpL16-k0 (antibody, human IgG1, kappa)
heavy 1: not shown
heavy 2: not shown
light: B1 light
B15: GpH7-A5/GpH7-B3 variant G236_20W/GpL16-k0 (antibody, human IgG1, kappa)
heavy 1: not shown
heavy 2: not shown
light: B1 light
B16: GpH7-A5/GpH7-B3 variant H268_06M/GpL16-k0 (antibody, human IgG1, kappa)
heavy 1: not shown
heavy 2: not shown
light: B1 light
B17: GpH7-A5/GpH7-B3 variant E269_01G/GpL16-k0 (antibody, human IgG1, kappa)
heavy 1: not shown
heavy 2: not shown
light: B1 light
B18: GpH7-A5/GpH7-B3 variant H268_02A/GpL16-k0 (antibody, human IgG1, kappa)
heavy 1: not shown
heavy 2: not shown
light: B1 light
B19: GpH7-A5/GpH7-B3 variant E269_02A/GpL16-k0 (antibody, human IgG1, kappa)
heavy 1: not shown
heavy 2: not shown
light: B1 light
B20: GpH7-A5/GpH7-B3 variant H268_07I/GpL16-k0 (antibody, human IgG1, kappa)
heavy 1: not shown
heavy 2: not shown
light: B1 light
B21: GpH7-A5/GpH7-B3 variant E269_14T/GpL16-k0 (antibody, human IgG1, kappa)
heavy 1: not shown
heavy 2: not shown
light: B1 light
B22: GpH7-A5/GpH7-B3 variant H268_09D/GpL16-k0 (antibody, human IgG1, kappa)
heavy 1: not shown
heavy 2: not shown
light: B1 light
B23: GpH7-A5/GpH7-B3 variant E269_09D/GpL16-k0 (antibody, human IgG1, kappa)
heavy 1: not shown
heavy 2: not shown
light: B1 light
B24: GpH7-A5/GpH7-B3 variant H268_11K/GpL16-k0 (antibody, human IgG1, kappa)
heavy 1: not shown
heavy 2: not shown
light: B1 light
B25: GpH7-A5/GpH7-B3 variant D270_14T/GpL16-k0 (antibody, human IgG1, kappa)
heavy 1: not shown
heavy 2: not shown
light: B1 light
B26: GpH7-A5/GpH7-B3 variant H268_05P/GpL16-k0 (antibody, human IgG1, kappa)
heavy 1: not shown
heavy 2: not shown
light: B1 light

Target: T4, FcγRIIIa extracellular domain, His-tagged (human, UniProt P08637 17-208)
T4 construct: extracellular domain; also called 3a
Experiment: SPR, vs GpH7-A5/GpH7-B3/GpL16-k0 =100

T4 sequence (P08637 other isoform, or with tags, fused parts or gaps): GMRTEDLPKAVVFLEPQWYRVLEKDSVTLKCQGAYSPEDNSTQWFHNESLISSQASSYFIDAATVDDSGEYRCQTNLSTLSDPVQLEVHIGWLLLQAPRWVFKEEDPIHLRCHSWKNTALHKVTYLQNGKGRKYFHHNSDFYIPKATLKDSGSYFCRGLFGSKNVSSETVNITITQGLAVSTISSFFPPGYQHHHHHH

| Binder | He/Con 3a |
| --- | --- |
| B1 | 90.3 % of control |
| B2 | 96 % of control |
| B3 | 95.7 % of control |
| B4 | 65.1 % of control |
| B5 | 112 % of control |
| B6 | 66.2 % of control |
| B7 | 91.4 % of control |
| B8 | 75.9 % of control |
| B9 | 65.8 % of control |
| B10 | 76 % of control |
| B11 | 62.1 % of control |
| B12 | 77 % of control |
| B13 | 60.3 % of control |
| B14 | 184 % of control |
| B15 | 126 % of control |
| B16 | 79.5 % of control |
| B17 | 61.6 % of control |
| B18 | 121 % of control |
| B19 | 68 % of control |
| B20 | 84.1 % of control |
| B21 | 59.7 % of control |
| B22 | 195 % of control |
| B23 | 106 % of control |
| B24 | 81.6 % of control |
| B25 | 55.4 % of control |
| B26 | 75.6 % of control |

Target: T1, FcγRIIa(H) extracellular domain, …
Experiment: SPR, vs GpH7-A5/GpH7-B3/GpL16-k0 =100

| Binder | He/Con 2aH |
| --- | --- |
| B1 | 93.5 % of control |
| B2 | 112 % of control |
| B3 | 100 % of control |
| B4 | 81.8 % of control |
| B5 | 111 % of control |
| B6 | 93.5 % of control |
| B7 | 100 % of control |
| B8 | 85.9 % of control |
| B9 | 116 % of control |
| B10 | 90.9 % of control |
| B11 | 70.7 % of control |
| B12 | 145 % of control |
| B13 | 140 % of control |
| B14 | 126 % of control |
| B15 | 153 % of control |
| B16 | 85.8 % of control |
| B17 | 72.3 % of control |
| B18 | 115 % of control |
| B19 | 78.7 % of control |
| B20 | 91.2 % of control |
| B21 | 70.3 % of control |
| B22 | 134 % of control |
| B23 | 105 % of control |
| B24 | 89.8 % of control |
| B25 | 81.3 % of control |
| B26 | 82.7 % of control |

Target: T2, FcγRIIb extracellular domain, His-tagged
Experiment: SPR, vs GpH7-A5/GpH7-B3/GpL16-k0 =100

| Binder | He/Con 2b |
| --- | --- |
| B1 | 90.3 % of control |
| B2 | 94.2 % of control |
| B3 | 151 % of control |
| B4 | 50.8 % of control |
| B5 | 72.5 % of control |
| B6 | 174 % of control |
| B7 | 120 % of control |
| B8 | 71.2 % of control |
| B9 | 115 % of control |
| B10 | 94.3 % of control |
| B11 | 50.2 % of control |
| B12 | 101 % of control |
| B13 | 101 % of control |
| B14 | 242 % of control |
| B15 | 60.7 % of control |
| B16 | 69 % of control |
| B17 | 54.1 % of control |
| B18 | 175 % of control |
| B19 | 52.4 % of control |
| B20 | 93.4 % of control |
| B21 | 53.2 % of control |
| B22 | 251 % of control |
| B23 | 110 % of control |
| B24 | 87.2 % of control |
| B25 | 54.8 % of control |
| B26 | 122 % of control |

Target: T3, FcγRIIa(R) extracellular domain, …
Experiment: SPR, vs GpH7-A5/GpH7-B3/GpL16-k0 =100

| Binder | He/Con 2aR |
| --- | --- |
| B1 | 100 % of control |
| B2 | 105 % of control |
| B3 | 134 % of control |
| B4 | 62.8 % of control |
| B5 | 85.7 % of control |
| B6 | 105 % of control |
| B7 | 117 % of control |
| B8 | 91.4 % of control |
| B9 | 124 % of control |
| B10 | 113 % of control |
| B11 | 65.8 % of control |
| B12 | 145 % of control |
| B13 | 135 % of control |
| B14 | 159 % of control |
| B15 | 77.3 % of control |
| B16 | 87.2 % of control |
| B17 | 70.3 % of control |
| B18 | 143 % of control |
| B19 | 70.2 % of control |
| B20 | 102 % of control |
| B21 | 71 % of control |
| B22 | 161 % of control |
| B23 | 113 % of control |
| B24 | 108 % of control |
| B25 | 72.2 % of control |
| B26 | 114 % of control |

Target: T5, FcγRIa extracellular domain, His-tagged (human, UniProt P12314 16-292)
T5 construct: extracellular domain; also called 1a
Experiment: SPR, vs GpH7-A5/GpH7-B3/GpL16-k0 =100

T5 sequence (P12314 other isoform, or with tags, fused parts or gaps): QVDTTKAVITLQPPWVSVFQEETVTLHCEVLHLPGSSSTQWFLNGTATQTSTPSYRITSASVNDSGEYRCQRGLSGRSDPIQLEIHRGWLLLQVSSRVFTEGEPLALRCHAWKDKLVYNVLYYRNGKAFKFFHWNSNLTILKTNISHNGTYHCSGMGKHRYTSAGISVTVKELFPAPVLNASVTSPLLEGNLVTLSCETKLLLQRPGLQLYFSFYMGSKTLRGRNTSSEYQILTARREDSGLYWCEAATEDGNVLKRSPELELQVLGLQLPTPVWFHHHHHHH

| Binder | He/Con 1a |
| --- | --- |
| B1 | 108 % of control |
| B2 | 103 % of control |
| B3 | 104 % of control |
| B4 | 93.2 % of control |
| B5 | 104 % of control |
| B6 | 95.5 % of control |
| B7 | 103 % of control |
| B8 | 104 % of control |
| B9 | 92.6 % of control |
| B10 | 103 % of control |
| B11 | 99.8 % of control |
| B12 | 99.1 % of control |
| B13 | 96 % of control |
| B14 | 107 % of control |
| B15 | 104 % of control |
| B16 | 101 % of control |
| B17 | 101 % of control |
| B18 | 105 % of control |
| B19 | 101 % of control |
| B20 | 104 % of control |
| B21 | 102 % of control |
| B22 | 106 % of control |
| B23 | 103 % of control |
| B24 | 102 % of control |
| B25 | 89.5 % of control |
| B26 | 106 % of control |
